Experimental data from the supplement of paper PMC11865577.

What was measured:
Experiment in all cases: pull-down binding Z-score (relative to library population); higher = stronger binding
[1] = test system: TO-3-N3 (biotin conjugate); conditions: RNA library: Library-2
In short: (§1)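 Cy5- or Cy3-end-labelled RNA library (1 μg) was heat-folded in phosphate/NaCl/KCl buffer and incubated 60 min at 25 °C with streptavidin beads carrying 100 pmol biotin-conjugated small molecule. After three washes, bound RNA was eluted in hot SDS and hybridised 20 h at 55.5 °C to a DNA barcode microarray. Binding was scored by subtracting a beads-only control, averaging barcoded replicate probes after dropping highest and lowest, and converting to a Z-score against library mean and standard deviation.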

[2] = test system: TO-3-N3-2 (biotin conjugate); conditions: RNA library: Library-2
In short: as §1

[3] = test system: TO-N3-2 (biotin conjugate); conditions: RNA library: Library-2
In short: as §1

[4] = test system: G-clamp-N3 (biotin conjugate); conditions: RNA library: Library-1 (pre-miRNA loops + repeats)
In short: as §1

TO-N3 (biotin conjugate) = conditions: RNA library: Library-2
In short: as §1

CCGCCUUUGUGCUGUCCUUGGAGGGAGG [hsa-mir-1910]
pull-down binding Z-score [1]: 0.209 | pull-down binding Z-score [2]: -0.0292 | pull-down binding Z-score [3]: 0.495 | pull-down binding Z-score [4]: 1.1 | pull-down binding Z-score (TO-N3 (biotin conjugate)): 0.226

CCGCUAGUGGAAGAAGAUGGCGG [hsa-mir-6125]
pull-down binding Z-score [1]: 0.322 | pull-down binding Z-score [2]: 0.669 | pull-down binding Z-score [3]: 1.59 | pull-down binding Z-score [4]: 1.5 | pull-down binding Z-score (TO-N3 (biotin conjugate)): 0.547

CCGGCCCGUUAGUUGCCCGGGCCCG [hsa-mir-3181]
pull-down binding Z-score [1]: -0.57 | pull-down binding Z-score [2]: -0.397 | pull-down binding Z-score [3]: 0.914 | pull-down binding Z-score [4]: -0.29 | pull-down binding Z-score (TO-N3 (biotin conjugate)): -0.422

CCGGGCGCUGCUCUGACCCCUCGU [hsa-mir-187]
pull-down binding Z-score [1]: 0.166 | pull-down binding Z-score [2]: 0.116 | pull-down binding Z-score [3]: 1.39 | pull-down binding Z-score [4]: 0.00395 | pull-down binding Z-score (TO-N3 (biotin conjugate)): 0.875

CCGGGGCAGGAGACCCCGCG [hsa-mir-1470]
pull-down binding Z-score [1]: -0.389 | pull-down binding Z-score [2]: -0.34 | pull-down binding Z-score [3]: 0.265 | pull-down binding Z-score [4]: -0.305 | pull-down binding Z-score (TO-N3 (biotin conjugate)): -0.351

CCGGGUGCCCACAAGACUGUG [hsa-mir-3138]
pull-down binding Z-score [1]: 0.49 | pull-down binding Z-score [2]: 0.469 | pull-down binding Z-score [3]: 2.06 | pull-down binding Z-score [4]: -0.253 | pull-down binding Z-score (TO-N3 (biotin conjugate)): 1.01

CCGUAUAUAUAUAUAUAUAUAUAUAGAUAUCUCCAUAUAUAUGG [hsa-mir-620]
pull-down binding Z-score [1]: -0.865 | pull-down binding Z-score [2]: -0.53 | pull-down binding Z-score [3]: -0.872 | pull-down binding Z-score [4]: 1.15 | pull-down binding Z-score (TO-N3 (biotin conjugate)): -1.16

CCGUGCCCUGGCCACUCAUUCGG [hsa-mir-6741]
pull-down binding Z-score [1]: 0.294 | pull-down binding Z-score [2]: 0.133 | pull-down binding Z-score [3]: 1.1 | pull-down binding Z-score [4]: -0.0927 | pull-down binding Z-score (TO-N3 (biotin conjugate)): 0.45

CCGUUUAAAAAGGCAUCUCCAAG [hsa-mir-608]
pull-down binding Z-score [1]: 0.0622 | pull-down binding Z-score [2]: 0.433 | pull-down binding Z-score [3]: 0.0602 | pull-down binding Z-score [4]: -1.45 | pull-down binding Z-score (TO-N3 (biotin conjugate)): 0.0887

CCUAGAGUCCAUUCUUUACUCUAGG [hsa-mir-4779]
pull-down binding Z-score [1]: -0.699 | pull-down binding Z-score [2]: -0.586 | pull-down binding Z-score [3]: -1.28 | pull-down binding Z-score [4]: -0.507 | pull-down binding Z-score (TO-N3 (biotin conjugate)): -1.18

CCUAGUGGCUAGCCCUGGGUCUAGCAGCCUAUGGCAGUGUCUGGUAAACACUGGUGGAGUCCUGGG [hsa-mir-6745]
pull-down binding Z-score [1]: -0.189 | pull-down binding Z-score [2]: -0.307 | pull-down binding Z-score [3]: 1.22 | pull-down binding Z-score [4]: 0.335 | pull-down binding Z-score (TO-N3 (biotin conjugate)): 0.336

CCUCAAUCACUUGCCAGAGAGAUUGG [hsa-mir-1200]
pull-down binding Z-score [1]: 0.0255 | pull-down binding Z-score [2]: -0.188 | pull-down binding Z-score [3]: -0.136 | pull-down binding Z-score [4]: -1.09 | pull-down binding Z-score (TO-N3 (biotin conjugate)): -0.196

CCUCACCUGCUGAGAG [hsa-mir-3670-3_3670-2_3670-1_3670-4]
pull-down binding Z-score [1]: -0.258 | pull-down binding Z-score [2]: -0.133 | pull-down binding Z-score [3]: 0.19 | pull-down binding Z-score [4]: 0.409 | pull-down binding Z-score (TO-N3 (biotin conjugate)): -0.143

CCUCCCCCAGUGCCAGG [hsa-mir-3196]
pull-down binding Z-score [1]: -0.253 | pull-down binding Z-score [2]: -0.331 | pull-down binding Z-score [3]: 0.352 | pull-down binding Z-score [4]: -0.591 | pull-down binding Z-score (TO-N3 (biotin conjugate)): -0.106

CCUCCCUAGGGGAUCCCAGGUAGG [hsa-mir-4688]
pull-down binding Z-score [1]: 0.295 | pull-down binding Z-score [2]: -0.168 | pull-down binding Z-score [3]: -0.0612 | pull-down binding Z-score [4]: -0.606 | pull-down binding Z-score (TO-N3 (biotin conjugate)): 0.0963

CCUCGAAGCUGCCUUUAGAAAUGAGG [hsa-mir-4496]
pull-down binding Z-score [1]: -0.0169 | pull-down binding Z-score [2]: -0.192 | pull-down binding Z-score [3]: 0.142 | pull-down binding Z-score [4]: -0.107 | pull-down binding Z-score (TO-N3 (biotin conjugate)): 0.176

CCUCUCGGGAACUACAAGUCCCAGGGGG [hsa-mir-2861]
pull-down binding Z-score [1]: -0.694 | pull-down binding Z-score [2]: -0.409 | pull-down binding Z-score [3]: -0.455 | pull-down binding Z-score [4]: 0.879 | pull-down binding Z-score (TO-N3 (biotin conjugate)): -0.794

CCUCUGUCCUCUGUCCUCUACCUAUAGAGG [hsa-mir-641]
pull-down binding Z-score [1]: 0.224 | pull-down binding Z-score [2]: -0.229 | pull-down binding Z-score [3]: 0.141 | pull-down binding Z-score [4]: 0.349 | pull-down binding Z-score (TO-N3 (biotin conjugate)): 0.118

CCUGACAGACAGCCUGAUAGACAGG [hsa-mir-4661]
pull-down binding Z-score [1]: 2 | pull-down binding Z-score [2]: 0.168 | pull-down binding Z-score [3]: 0.908 | pull-down binding Z-score [4]: -0.998 | pull-down binding Z-score (TO-N3 (biotin conjugate)): 1.96

CCUGAUGAAUCUGAGGCCAGG [hsa-mir-577]
pull-down binding Z-score [1]: -0.271 | pull-down binding Z-score [2]: 0.118 | pull-down binding Z-score [3]: 0.326 | pull-down binding Z-score [4]: 1.14 | pull-down binding Z-score (TO-N3 (biotin conjugate)): -0.18

CCUGCAGCCCCCAGGUGGGGGG [hsa-mir-4271]
pull-down binding Z-score [1]: 0.75 | pull-down binding Z-score [2]: -0.105 | pull-down binding Z-score [3]: 0.398 | pull-down binding Z-score [4]: 0.67 | pull-down binding Z-score (TO-N3 (biotin conjugate)): 0.659

CCUGCAGGUGAGAGCGGGAACACCUGCAU [hsa-mir-7112]
pull-down binding Z-score [1]: -0.176 | pull-down binding Z-score [2]: 0.104 | pull-down binding Z-score [3]: 1.03 | pull-down binding Z-score [4]: 0.953 | pull-down binding Z-score (TO-N3 (biotin conjugate)): 0.311

CCUGCCACGUCAAAGGAGGCAGA [hsa-mir-3154]
pull-down binding Z-score [1]: -0.302 | pull-down binding Z-score [2]: -0.38 | pull-down binding Z-score [3]: 0.137 | pull-down binding Z-score [4]: 1.11 | pull-down binding Z-score (TO-N3 (biotin conjugate)): -0.164

CCUGCCCAAAUGGUGGAGCAGAUUCGAGGGGCAGG [hsa-mir-4436b-2_4436b-1]
pull-down binding Z-score [1]: -0.218 | pull-down binding Z-score [2]: 0.0731 | pull-down binding Z-score [3]: -0.125 | pull-down binding Z-score [4]: 2.51 | pull-down binding Z-score (TO-N3 (biotin conjugate)): -0.282

CCUGCCUCAGAACUACUGAACAGAGUCACUGGGUGUGGA [hsa-mir-1289-2]
pull-down binding Z-score [1]: -0.292 | pull-down binding Z-score [2]: -0.00545 | pull-down binding Z-score [3]: 0.785 | pull-down binding Z-score [4]: 0.873 | pull-down binding Z-score (TO-N3 (biotin conjugate)): 0.181

CCUGCCUGCCCUCCAGGUCAUGUUCCAGUGUCCCACAGAUGCAGCACCACGG [hsa-mir-6075]
pull-down binding Z-score [1]: 0.0521 | pull-down binding Z-score [2]: 0.186 | pull-down binding Z-score [3]: 1.54 | pull-down binding Z-score [4]: -0.799 | pull-down binding Z-score (TO-N3 (biotin conjugate)): 0.616

CCUGCUGUGUGAAACAAAAGUAAG [hsa-mir-302c]
pull-down binding Z-score [1]: -0.422 | pull-down binding Z-score [2]: 0.0469 | pull-down binding Z-score [3]: 0.474 | pull-down binding Z-score [4]: -1.08 | pull-down binding Z-score (TO-N3 (biotin conjugate)): 0.103

CCUGGAGAGCUGCUGUCUCCAG [hsa-mir-6746]
pull-down binding Z-score [1]: -0.114 | pull-down binding Z-score [2]: -0.596 | pull-down binding Z-score [3]: 0.355 | pull-down binding Z-score [4]: 1.35 | pull-down binding Z-score (TO-N3 (biotin conjugate)): 0.0297

CCUGUAUGUCUCCCCGCAGCACCGUCAUCGU [hsa-mir-6774]
pull-down binding Z-score [1]: 0.498 | pull-down binding Z-score [2]: 0.182 | pull-down binding Z-score [3]: 0.832 | pull-down binding Z-score [4]: -1.39 | pull-down binding Z-score (TO-N3 (biotin conjugate)): 0.785

CCUGUCCUAUGACAAACAUGGCAGG [hsa-mir-3927]
pull-down binding Z-score [1]: -0.564 | pull-down binding Z-score [2]: -0.497 | pull-down binding Z-score [3]: -0.673 | pull-down binding Z-score [4]: -0.521 | pull-down binding Z-score (TO-N3 (biotin conjugate)): -0.547

CCUGUUUGAAUAUUUCACCAGAAACAGG [hsa-mir-4433b]
pull-down binding Z-score [1]: -0.311 | pull-down binding Z-score [2]: -0.044 | pull-down binding Z-score [3]: -0.74 | pull-down binding Z-score [4]: 1.2 | pull-down binding Z-score (TO-N3 (biotin conjugate)): -0.402

CCUGUUUUACAAAUAAGGAAAUAAACUCAGG [hsa-mir-1321]
pull-down binding Z-score [1]: -0.59 | pull-down binding Z-score [2]: -0.326 | pull-down binding Z-score [3]: -1.08 | pull-down binding Z-score [4]: -1.01 | pull-down binding Z-score (TO-N3 (biotin conjugate)): -0.94

CCUUAGCACUAGCAGGAGG [hsa-mir-612]
pull-down binding Z-score [1]: -0.588 | pull-down binding Z-score [2]: -0.482 | pull-down binding Z-score [3]: 0.00744 | pull-down binding Z-score [4]: 0.101 | pull-down binding Z-score (TO-N3 (biotin conjugate)): -0.556

CCUUCCAAUACCUGUAAGCAGAAGG [hsa-mir-3158-2]
pull-down binding Z-score [1]: 0.0988 | pull-down binding Z-score [2]: 0.0627 | pull-down binding Z-score [3]: 0.397 | pull-down binding Z-score [4]: 0.355 | pull-down binding Z-score (TO-N3 (biotin conjugate)): 0.0957

CCUUCGCUUUAUUUGUGACGAAUC [hsa-mir-154]
pull-down binding Z-score [1]: -0.799 | pull-down binding Z-score [2]: -0.374 | pull-down binding Z-score [3]: -0.185 | pull-down binding Z-score [4]: -0.922 | pull-down binding Z-score (TO-N3 (biotin conjugate)): -0.676

CCUUCUAAUGAGUAUGCUUAACUUGGUAGAAGG [hsa-mir-3914-1]
pull-down binding Z-score [1]: -0.108 | pull-down binding Z-score [2]: -0.0963 | pull-down binding Z-score [3]: -0.858 | pull-down binding Z-score [4]: 0.508 | pull-down binding Z-score (TO-N3 (biotin conjugate)): -0.141
